T1: human CD39 (Accession No. NM_001776.6) expressed on cells (human, UniProt P49961 1-510)
T1 construct: whole, on cells; On Jurkat, 293T or SK-MEL28 cells; also called Jurkat/CD39; 293T/CD39
T1 sequence (looked up): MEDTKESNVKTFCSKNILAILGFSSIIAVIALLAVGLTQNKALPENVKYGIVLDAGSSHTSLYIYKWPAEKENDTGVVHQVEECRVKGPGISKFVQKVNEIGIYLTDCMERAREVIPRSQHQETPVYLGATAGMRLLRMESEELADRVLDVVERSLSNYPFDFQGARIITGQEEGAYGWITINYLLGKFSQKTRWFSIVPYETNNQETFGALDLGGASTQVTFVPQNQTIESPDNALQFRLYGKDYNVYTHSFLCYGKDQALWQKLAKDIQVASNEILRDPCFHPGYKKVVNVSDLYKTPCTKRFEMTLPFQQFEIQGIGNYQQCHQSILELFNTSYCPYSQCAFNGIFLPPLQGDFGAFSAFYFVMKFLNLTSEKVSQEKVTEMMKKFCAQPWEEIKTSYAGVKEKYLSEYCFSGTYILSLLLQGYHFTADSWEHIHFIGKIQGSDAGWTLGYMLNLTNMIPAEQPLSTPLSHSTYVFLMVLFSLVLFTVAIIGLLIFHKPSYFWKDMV

T2: recombinant human CD39 (in-house product, 38 to 478 aa of Accession No. NM_001776.6) (human, UniProt P49961 38-478)
T2 construct: also called rhCD39; human CD39-ECD; not shown: Myc and His tags at the C-terminus are named only for the PE-lab
T2 sequence (looked up): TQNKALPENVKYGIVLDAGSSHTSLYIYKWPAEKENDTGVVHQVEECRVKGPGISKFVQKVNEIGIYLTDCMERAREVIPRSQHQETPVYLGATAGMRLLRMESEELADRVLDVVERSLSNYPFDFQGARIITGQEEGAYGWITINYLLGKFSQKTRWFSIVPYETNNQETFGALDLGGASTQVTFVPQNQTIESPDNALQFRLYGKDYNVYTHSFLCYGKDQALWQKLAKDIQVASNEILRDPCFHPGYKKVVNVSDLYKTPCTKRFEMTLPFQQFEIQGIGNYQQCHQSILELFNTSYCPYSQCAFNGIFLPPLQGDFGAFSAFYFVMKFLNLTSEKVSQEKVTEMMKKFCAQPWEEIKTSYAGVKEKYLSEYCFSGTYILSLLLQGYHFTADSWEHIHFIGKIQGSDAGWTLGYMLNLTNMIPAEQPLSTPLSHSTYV

B1: mAnE67_Hu003_Fsc (bispecific antibody, not shown: a dimerising Fc or GST)
VH: EVQLVESGGGLVKPGGSRKLSCAASGFTFSDYGMHWVRQAPEKGLEWVAYISSGSSIIYYADTVKGRFTISRDNAKNTLFLQMTGLRSEDTAMYYCARKDYPYAMDYWGQGTSLAVSS
VL: SIVMTQTPKFMSTSVGDRVSVTCKASQNVGTNVAWYQQKPGQSPKALIYWASNRFTGVPDRFTGSGSGTDFTLTISNVQSEDLADYFCQQYSSSPYTFGSGTKLEIK
scFv: QVQLQESGGGLVKPGGSLKLSCAASGFTFSSYYMSWVRQTPDKRLEWVATISNSGGSTYYPDSVKDRFTISRDNAKNTLYLQMSSLKSEDTAMYYCARDPYYTNYVPMDYWGQGTMVTVSSGGGGSGGGGSGGGGSGGGGSDIVMTQSPSFLSASVGDRVTITCKASQYVDTYVAWYQQRPGKAPKPLIYSASTRHTGVPSRFSGSGSGTEFTLTISSLQPEDFATYFCAQYSSSPLTFGGGTKLELK
notes: Fab-scFv-Fc heterodimer: anti-CD39 mAnE67 arm (Knob)
B2: Tre291_Hu003_Fsc (bispecific antibody, not shown: a dimerising Fc or GST)
VH: QVQLKQSGPGLVQPSQSLSITCTVSGFSLTSYGVHWVRQSPGKGLEWLGVIWRRGSTDYNAAFMSRLSITKDTSKSQVFFKMNSLQTDDTAIYYCAGVRGDAMDYWGQGTSVTVSS
VL: DIVMTQSHKSMSTSVGDRVSVTCKASQNVGTNVAWYQQKPGQSPKALIYSASYRYSGVPDRFTGSGSGTDFTLTISNVQSEDLAEYFCQQYNSYPLTFGGGTKLEIK
scFv: B1 scFv
notes: Fab-scFv-Fc heterodimer: anti-CD39 Fab Tre291 (Knob)
B3: 6-3hIG_Hu003_Fsc (bispecific antibody, not shown: a dimerising Fc or GST)
VH: QVQLVQSGAELVKPGASVKLSCKASGFSIKDTYVHWVKQAPGKGLEWIGKIDPANVNTKFDPKFQGRVTITADTSTNTAYLQLSSLRSEDTAVYYCALYGYDDDAYYFDYWGQGTLVTVSS
VL: EIVLTQSPASLSVSPGERATISCRASESVDNYGISFMNWFQQKPGQAPKLLIYAASNQGSGVPARFSGSGSGTDFTLTISSLEPEDFAVYYCQQSKEVPYTFGQGTKLEIK
scFv: B1 scFv
B4: T86_Hu003_Fsc (bispecific antibody, not shown: a dimerising Fc or GST)
VH: QIQLVQSGPELKKPGETVKISCEASGYTFINYGMNWVKQAPGKGLKWMGWINTYTGEPTYADDFKGRFAFSLETSANTAYLQINNLKNEDTATYFCARKGYYGYPNYYAMDYWGQGTSVTVSS
VL: DIVMTQSQKFMSTSVGDRVSITCKASQNVGTAVAWYQQKPGQSPKLLIYSASNRYTGVPDRFTGSGSGTDFTLTISNMQSEDLADYFCQQYSSYPITFGTGTKLEIK
scFv: B1 scFv
notes: Fab-scFv-Fc heterodimer: anti-CD39 Fab T86 (Knob)
B5: HuP4_11_Hu003_Ct (bispecific antibody)
chain 1: EVQLVESGGALVQPGRSLRLSCAVSGFTLSNYGVHWVRQAPGKGLEWVAVILRRGSTDYNAAFMSRFTISKDNSKNTVYLQMNSLRADDTAVVAGDYFDYWGQGTTVTVSSGGGGSGGGGSGGGGSGGGGSDIVMTQSQKFMSTSVGDRVSITCKASQNVGTNVAWYQQKPGQSPKLLIYSASYRYSGVPDRFTGSGSGTDFTLTISNMQSEDLADYFCQQYNSYPLTFGGGTKLEIK
chain 2: B1 scFv
B6: I67_sc (antibody)
scFv: DVQLQESGPSLVQPSQSLSINCTVSGFSLSSYGVHWVRQSPGKGLEWLGVIWRRGSTDYNAAFMSRLSITKDNSKSQVFFKMNRLQADDTATYYCAKGISTATSWFAYWGQGTLVTVSAGGGGSGGGGSGGGGSGGGGSDIVMTQSHKFMSTSVGDRVSVTCKASQNVGTNVAWYQQKPGQSPKALIYSASYRYSGVPDRFTGSGSGTDFTLTISNVQSEDLAEYFCQQYNSYPLTFGAGTKLELK
notes: scFv-Fc homodimer, anti-CD39 (mouse variable regions); also called scFv-Fc homodimeric antibody of anti-CD39_scFv antibody I67; not shown: linker and Fc-LALA (human IgG1 Fc with L234A and L235A)
B7: Tre_291_sc (antibody)
scFv: QVQLKQSGPGLVQPSQSLSITCTVSGFSLTSYGVHWVRQSPGKGLEWLGVIWRRGSTDYNAAFMSRLSITKDTSKSQVFFKMNSLQTDDTAIYYCAGVRGDAMDYWGQGTSVTVSSGGGGSGGGGSGGGGSGGGGSDIVMTQSHKSMSTSVGDRVSVTCKASQNVGTNVAWYQQKPGQSPKALIYSASYRYSGVPDRFTGSGSGTDFTLTISNVQSEDLAEYFCQQYNSYPLTFGGGTKLEIK
notes: scFv-Fc homodimer, anti-CD39 (mouse variable regions); not shown: linker and Fc-LALA (human IgG1 Fc with L234A and L235A)
B8: mAnE67_sc (antibody)
scFv: EVQLVESGGGLVKPGGSRKLSCAASGFTFSDYGMHWVRQAPEKGLEWVAYISSGSSIIYYADTVKGRFTISRDNAKNTLFLQMTGLRSEDTAMYYCARKDYPYAMDYWGQGTSLAVSSGGGGSGGGGSGGGGSGGGGSSIVMTQTPKFMSTSVGDRVSVTCKASQNVGTNVAWYQQKPGQSPKALIYWASNRFTGVPDRFTGSGSGTDFTLTISNVQSEDLADYFCQQYSSSPYTFGSGTKLEIK
notes: scFv-Fc homodimer, anti-CD39 (mouse variable regions); also called scFv-Fc homodimeric antibody of anti-CD39_scFv antibody mAnE67; not shown: linker and Fc-LALA (human IgG1 Fc with L234A and L235A)
B9: 6-3hIG_sc (antibody)
scFv: QVQLVQSGAELVKPGASVKLSCKASGFSIKDTYVHWVKQAPGKGLEWIGKIDPANVNTKFDPKFQGRVTITADTSTNTAYLQLSSLRSEDTAVYYCALYGYDDDAYYFDYWGQGTLVTVSSGGGGSGGGGSGGGGSGGGGSEIVLTQSPASLSVSPGERATISCRASESVDNYGISFMNWFQQKPGQAPKLLIYAASNQGSGVPARFSGSGSGTDFTLTISSLEPEDFAVYYCQQSKEVPYTFGQGTKLEIK
notes: scFv-Fc homodimer, anti-CD39; also called scFv-Fc homodimeric antibody of anti-CD39_scFv antibody (humanized) 6-3hIG; not shown: GGGG linker and Fc-LALA (human IgG1 Fc with L234A and L235A)

target: T1, human CD39 (Accession No. NM_001776.6) …; assay: flow cytometry, 293T/CD39 cells, KD from MFI

Kd | Binder
3.94 nM | B1
25.4 nM | B2
17.6 nM | B3
9.19 nM | B4

target: T3, biotinylated human TIM-3-Fc antigen (in-house product, SEQ ID No: 118) (human, biotinylated); assay: flow cytometry, inhibition of biotinylated TIM-3-Fc binding to phosphatidylserine on apoptotic Jurkat cells

IC50 | Binder
19.8 nM | B1
22.4 nM | B2
15.5 nM | B3
23.9 nM | B4

target: T3, biotinylated human TIM-3-Fc antigen …; assay: competition ELISA: human Galectin-9 coated, biotinylated human TIM-3-Fc pre-mixed with the antibody dilution series, Streptavidin-HRP, A450; blocked ligand: human Galectin-9

IC50 (read off the curve) | Binder
~3 nM | B5

target: T2, recombinant human CD39 (in-house …); assay: SPR Biacore8K, antibody captured on anti-human IgG, antigen as analyte

Kd | Binder
2.7 nM | B1
1.36 nM | B2
0.21 nM | B3
2.4 nM | B4

target: T3, biotinylated human TIM-3-Fc antigen …; assay: competition ELISA: human Galectin-9 coated, biotinylated human TIM-3-Fc pre-mixed with the antibody dilution series, Streptavidin-HRP, A450; blocked ligand: human Galectin-9; remark: another data set of the same source

IC50 (read off the curve) | Binder
~2 nM | B3

target: T1, human CD39 (Accession No. NM_001776.6) …; assay: flow cytometry, Jurkat/CD39 cells, KD from MFI

Kd | Binder
0.329 nM | B6
0.8 nM | B7
0.334 nM | B8
42.1 nM | B9

target: T3, biotinylated human TIM-3-Fc antigen …; assay: flow cytometry, inhibition of biotinylated TIM-3-Fc binding to phosphatidylserine on apoptotic Jurkat cells; remark: another data set of the same source

IC50 | Binder
30.7 nM | B5

target: T1, human CD39 (Accession No. NM_001776.6) …; assay: flow cytometry, 293T/TIM-3 + CD39 cells, KD from MFI

Kd | Binder
6.8 nM | B6
7.15 nM | B7
5.5 nM | B8
26.6 nM | B9

target: T1, human CD39 (Accession No. NM_001776.6) …; assay: flow cytometry, Jurkat/TIM-3 + CD39 cells, KD from MFI

Kd | Binder
0.208 nM | B6
0.922 nM | B7
0.343 nM | B8
33.6 nM | B9

target: T1, human CD39 (Accession No. NM_001776.6) …; assay: flow cytometry, 293T/CD39 cells, KD from MFI; remark: another data set of the same source

Kd | Binder
2.37 nM | B6
2.43 nM | B7
2.19 nM | B8
18.6 nM | B9

target: T2, recombinant human CD39 (in-house …); assay: SPR Biacore8K, antibody captured on anti-human IgG, antigen as analyte; remark: another data set of the same source

Kd | koff | kon | Binder
1.65 nM | 0.00294 s⁻¹ | 1.78e+06 M⁻¹ s⁻¹ | B6
2.22 nM | 0.0031 s⁻¹ | 1.4e+06 M⁻¹ s⁻¹ | B7
4.75 nM | 0.00187 s⁻¹ | 393000 M⁻¹ s⁻¹ | B8
0.465 nM | 0.000187 s⁻¹ | 402000 M⁻¹ s⁻¹ | B9

Source: patent US20260085127A1 (BRIGHTPATH BIOTHERAPEUTICS, published 2026)
